Experiment [1] has as its target T1, 2019-nCoV N蛋白抗原 (2019-nCoV (新型冠状病毒), UniProt P0DTC9 1-419).
The target in experiment [2] is T1, 2019-nCoV N蛋白抗原. In words: AMC sensor, antibody captured at 10 μg/mL, N protein antigen in serial dilution in PBST.

B1: 抗新型冠状病毒的IgG抗体9B54 (antibody)
heavy: EVLLQQSGPELVNPGASVKIPCKASGYTFTDYNMGWVKQSHGKSLEWIGAIIPNNGGTIYNQKFKGKATLTVDESSSTAYMELRSLTSEDTAVYYCAREAYRDYDVKTWFAYWGQGTLVTVSAAKTTPPSVYPLAPGSAAQTNSMVTLGCLVKGYFPEPVTVTWNSGSLSSGVHTFPAVLQSDLYTLSSSVTVPSSTWPSETVTCNVAHPASSTKVDKKIVPRDCGCKPCICTVPEVSSVFIFPPKPKDVLTITLTPKVTCVVVDISKDDPEVQFSWFVDDVEVHTAQTQPREEQFNSTFRSVSELPIMHQDWLNGKEFKCRVNSAAFPAPIEKTISKTKGRPKAPQVYTIPPPKEQMAKDKVSLTCMITDFFPEDITVEWQWNGQPAENYKNTQPIMDTDGSYFVYSKLNVQKSNWEAGNTFTCSVLHEGLHNHHTEKSLSHSPGK
light: DLQMTQTTSSLSASLGDRVTISCSASQGIRNYLNWYQQKPDGTVKLLIYYTSTLHSGVPSRFSGSGSGTDYSLTISNLEPEDIATYFCQQYSKFPYTFGGGTKLEIKRADAAPTVSIFPPSSEQLTSGGASVVCFLNNFYPKDINVKWKIDGSERQNGVLNSWTDQDSKDSTYSMSSTLTLTKDEYERHNSYTCEATHKTSTSPIVKSFNRNEC
The Kd is the concentration at which binding is half-saturated. Higher therefore signals weaker binding. For orientation: koff means the rate constant with which the complex falls apart. A lower koff goes with slow dissociation. A word on the kon: it is the rate constant with which the complex forms. A high value points to fast association. With B1, the “OD450 (ref. 630 nm) of cell supernatant diluted 1000-fold” value with 2019-nCoV N蛋白抗原 [1] was above 1. In the experiment with 2019-nCoV N蛋白抗原 [2], this molecule yielded a Kd of 0.102 nM, a koff of 0.000113 s⁻¹ and a kon of 1.11e+06 M⁻¹ s⁻¹.

B2: 抗新型冠状病毒的类IgM抗体8C21 (antibody)
heavy: EVLLQQSGPELVNPGASVKIPCKASGYTFTDYNMGWVKQSHGKSLEWIGAIIPNNGGTIYNQKFKGKATLTVDESSSTAYMELRSLTSEDTAVYYCAREAYRDYDVKTWFAYWGQGTLVTVSAAKTTPPSVYPLAPGSAAQTNSMVTLGCLVKGYFPEPVTVTWNSGSLSSGVHTFPAVLQSDLYTLSSSVTVPSSTWPSETVTCNVAHPASSTKVDKKIVPRDCPAVAEMNPNVNVFVPPRDGFSGPAPRKSKLICEATNFTPKPITVSWLKDGKLVESGFTTDPVTIENKGSTPQTYKVISTLTISEIDWLNLNVYTCRVDHRGLTFLKNVSSTCAASPSTDILTFTIPPSFADIFLSKSANLTCLVSNLATYETLNISWASQSGEPLETKIKIMESHPNGTFSAKGVASVCVEDWNNRKEFVCTVTHRDLPSPQKKFISKPNEVHKHPPAVYLLPPAREQLNLRESATVTCLVKGFSPADISVQWLQRGQLLPQEKYVTSAPMPEPGAPGFYFTHSILTVTEEEWNSGETYTCVVGHEALPHLVTERTVDKSTGKPTLYNVSLIMSDTGGTCY
light: DLQMTQTTSSLSASLGDRVTISCSASQGIRNYLNWYQQKPDGTVKLLIYYTSTLHSGVPSRFSGSGSGTDYSLTISNLEPEDIATYFCQQYSKFPYTFGGGTKLEIKRADAAPTVSIFPPSSEQLTSGGASVVCFLNNFYPKDINVKWKIDGSERQNGVLNSWTDQDSKDSTYSMSSTLTLTKDEYERHNSYTCEATHKTSTSPIVKSFNRNEC
notes: IgM-like antibody made by replacing part of the constant region of 9B54 with that of IgM
B2: in the experiment with 2019-nCoV N蛋白抗原 [2], the Kd came out at 0.031 nM, the koff was 6.56e-05 s⁻¹ and the kon turned out to be 2.11e+06 M⁻¹ s⁻¹.

Values taken from patent publication CN117088968A (DONGGUAN PENGZHI BIOTECHNOLOGY CO LTD, dated 2023).
